Assay: label from the status in PepcDB records
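Also: failed if final PepcDB status was selected cloned or expressed and not failed if soluble or beyond.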

Sequence: MDKKVEKIQEKVRLFYKKHQRNTTIVVVISLSMILILGMAAWYEGKGISYEAKQTALREKQHALQKKRDDILAGKMTEASTQTTINNFSKQEITGENELVTITGTNGQLNINDANIYVSDNAGIVSNQLKQKMFQLNQQLLENANGAQFMLITVPALPSGESVESYSNKIANQLGVGDREKNNGVVFLMAIEDRESRLEVGYGLESILTDSYADDIINNEEVKEAFRDEDYNTGLNKIIDQVSAAINSKTAQVDNELTNIQTELNTNTTKRNVLLMASIAGMLICAVYILQILRTRKLVKKMYQDYLNCLPTKAVLNNSEQTKKVLNKMKKTSFYCLYLNGATLFATKGKIRRATKRGSLLSIYPNAKKQSFGRLLVGDTLYSYDGSVLTYAYLNSQYNPSNHSSSGSGSGGSFGGGSFGGGGASGSWLEHHHHHH
- protein production: not failed

Sequence: MALLLAALLVLLTALLAVRLPAWASALLLGLLAGSGYALGVRSEALPAGALLLLGALAAPRLYLGPRRRKRPERRPPGPKRPAAAGTTAEREALSQRYEILEKVGLGGMATVYKAKDRKTGRLVALKVPQERFLGDPRFVRRFHREAEVLTRMDHPNIVKVYDHGQVEGVHYIAMEFLDGEGLDKLIEERRLSLRQAAAILARVADALKHIHAQGIVHRDIKPGNIMVLKGALREDGVDPRGVRLMDFGIAAGRVLTRLTITGARIGTPVYMSPEQAKGQKLDHRSDIYSLGIVLYEALTGQPPFTGGYETVIHQQIFQMPTPPKQLRPEIPQALSDLVLRMLEKDPAKRPGLDEVVRVLEGPWEEERELPEAQYLLVAVEAKKGAVRLLDLEGTPARLLSGVGSGAGQFPSPPLAVAADPEGGIWVAVFQHGERLVHRLSPQGEVLLSTGPYGMKPGEFLLPVGLAVLEDQVFVLDGETATVSRLDLAGRYQGRFGGQGLGRGTFQDPKALVAAEGHLFVLDYGNRQVQRLTPEGGYLSRYAFRRSREDGALRLLGGVGVGEGRLYLYDVEAVKVRVLDLSGRLLASYPLPLLEGEDRMSLVELLPVGRVLYAARRGSSRIHRISLDTGEALPPLEVYAPVRGLALWRRTP
- protein production: failed

Sequence: MDSRSLSVHDGAMQTLTVPDSGLAPLLPGQRLARGVCRHLRSHDFVSVVELVPAPGLRVDVMALGPKGEIWVVECKSSRADYQSDRKWQGYLDWCDRFFFAVDEAFPVDLLPEGTGLMLADGYDAEILRIGPEGRLAPARRKAVIQGFARHAALRLQGLRDPGAFPG
- protein production: failed

Sequence: MNSPTSRPLRRDPLHNALVTTNVLVVLDQLEVAAEPTRRRLVQLLTSGEQTVNNLAAHFPASRSAISQHLRVLTEAGLVTPRKDGRFRYYRLDPQGLAQLRALFDSFWIDELDRLVADATEEAASKGDS
- protein production: not failed

Sequence: MKVTDVRLRKIQTDGRMKALVSITLDEAFVIHDLRVIEGNSGLFVAMPSKRTPDGEFRDIAHPINSDMRQEIQDAVMKVYDETD
- protein production: not failed

Sequence: MSFRTGERRIWDATATLEALGAADVALWIWEPETDRLRLNGAARALGLGPLAPECSSAAFRALALPQDRAQAEEVLKPREPGSEVVARFRVRGGETCLWRGVWLEEGVRAAGVVAPETKFSASELCDLTGLLDRRSFLARARERLAQEGTHQLVVADLDRLRRLNEALGHERADLVLAALGSRLAAAFPAQSILGRIGEDEFAVLCQPLGYEPSDVLRSALEQPLRVAGFDIHPTLSIGAVSAEGGLDAPDAAELLRRAELAVEAAAAAGRGGAAAYGRAMETDGLSRLALEADLRGAIGRGEITPYFQPIVRLSTGALSGFEALARWIHPRRGMLPPDEFLPLIEEMGLMSELGAHMMHAAAQQLSTWRAAHPAMGNLTVSVNLSTGEIDRPGLVADVAETLRVNRLPRGALKLEVTESDIMRDPERAAVILKTLRDAGAGLALDDFGTGFSSLSYLTRLPFDTLKIDRYFVRTMGNNAGSAKIVRSVVKLGQDLDLEVVAEGVENAEMAHALQSLGCDYGQGFGYAPALSPQEAEVYLNEAYVDGAAPVKARG
- protein production: failed

Sequence: MQFKIIKAQELEKQQREKIAELCFAAFEEDPWSQYAFMQNAFHIIGLLGEDIVSHALWTDRVFTLNNHVTLKTAYIEYVTTDSTMRGRGLASKLLMYLINILTTKKYELAALQPEVEAFYRKLGWVSWGGNLYIKHNISIYKTDGIEVMLYPLSGGLKDQIVCSLKNDKICTDWREGELW
- protein production: failed

Sequence: MLPVSTSVQRSTRQQKITYLYNRNEQSNKKAVTMKTTTTETSIPEEKTTSARIQAYSKSQLAALYLPHIQPASARRTLRSWIAKNTELQAALARSGYTGKAILLTPAQVGLFFRFLGEP
- protein production: failed

Sequence: MSVGCARIRRALRHGTSPARQHDAAAASHRRAPVVRIRMDIDAALGEQYVDYRCSRCGMVAQAAVAGYGTGLVVNGVSLSNAQLEAEVGAARAARLAPCPRCGHRGRPALLGVLLVGATVGVVAAMAIGFTVAELFHRSDPEGRLAPVVGTATFVAVVATMTALKLRSVRRRVRFHRVML
- protein production: failed

Sequence: MGLFELNLAIILFIIGNFIGLEYSYRKYSSPYVEKGIDKFALAISVFGGILINSPLYMLGCLLIGFPLGMRPGYGRVEFVVGLAVALFLYFLRW
- protein production: failed

Sequence: MMNTSDNHALGDFLRARRQRLDPATFGFPAGRRRTPGLRREEVAQLASISPTWYTWLEQGRGGAPSREVLERIARGLRLTTPEREHLFILAFGHPPQTRLTVTDDMTPRLQRVLDAFTIPAIIRTASW
- protein production: failed

Sequence: MEKQPNKLIREKSPYLLQHAWNPVDWHPWGEEAFSRARETGRPIFLSSGYSTCHWCHVMEHESFENAETAALLNRHFVPVKLDREEHPDVDHLYMMFVQATTGRGGWPMSVWMTPDLKPFFGGSYFPATERWGMPSFRSVLEHLANLWEHDRPRLLASAGSIMDQLSGLTRP
- protein production: failed

Sequence: MWVDGMAKVVEVGRICVKTRGREAGRKCVIVDIIDENFVLVTGPKSLTGVRRRRVNIDHIEILDKKVDIQKGASDEEVLKALEEAGLADFMREPVRIARITPFTLLEHHHHHH
- protein production: not failed

Sequence: MSLEPLDVDAEGVAAATKARGFRPKHLVTGPSRDDKSFLGHPGGLPWMLQVEMWERFSWYGMRAILVYFITDTLAHGGLGLPINAGQVVMASYGAAVLLMTIPGGIFADRILGPWMSTLCGGLIIMTGHVILAIPQVVTSWIGLICIAIGTGFIKPNLSTVVGGLYDDGDPRRDQGFLYFYMSINIGSLFAPIVTGLLKDHYGYHVGFIAAAIGMALGLIAFFHGRSKLREFAFDIPNPLAPGEGRRMVLRALGIAVVGAVLAIGFKALLGEWTSAIAYALFAFASVTALSYFLTMFRSPKVSDRERGHLWAFVPLWVGQVLFTMIFEQAAGKMPTFAKDNTDGHIVGSWSVEPEQYQTINPAAVLILAGLLGMWFRRREGKFPNTPQKFAISVFIIGITALIMGFGFRSWPGGNRLAPWWFLAVVFVIQTVAELFMNPIGLSTATKLAPKKFASQNMTLWLLASACGQGLASVTIERTKNLGDVVFYYSLGIVTILVAVVLFVIAPWTQAKMKDVDSVAEEGDA
- protein production: failed

Sequence: MKKTLILILCLFLCTVSFARKRVKVACVGNSITYGIGVSDPDKESYPARLQQMLGEGYTVERFGKPGATLLNKGHRPFMQQKEFKDALAFAGDVVVIHLGVNDTDPRDWPNYRDFFIADYRALIDSFRVANPECRILIARLTPIADRHPRFESGTRDWHDEIQLAIETIAKYAQVQLIDFHAPLYPYPFMLPDAVHPDKEGAAVLAKTVYEGITGDFGGLQMPEIYTDNMVLQHGRLLTIQGKADAGEKVTVSIDRQKLQAVTGADGKWAVDVRPLKAGGPYTLTVSTEKRKLVYENVLAGEVWLCSGQSNMEFYLNWSATAAQDVPQAANSNIRFYDMKARWRTDAVEWDASVLDSLNHLQYYKDTRWTVCSPETAGNFSAVAYYFGKKLQDSLQVPVGLICNAIGGSPTEAWIDRSTLEYRFPAILRNWMQNDFIQDWVRGRAALNVKQSSNKLQRHPYEPCYLYESGIRPLEQFPVKGFIWYQGESNAHNREAHEKLFGLLVESWRKNWGDAELPFYFVQLSSIDRPSWTWFRDSQRRLMAEIPHTGMAVSSDRGDSLDVHPKQKREVGERLAAWALNKTYGYKNVIPSGPLYKSVVFSGGAAYISFDYAEELSTSDGKSLRTFEVAGDDGLFYPAQAVVENGKIKVWSDKVKEPETVRYGWQPFTRANLVNGAGLPASTFRAE
- protein production: failed

Sequence: MNSPFAAETLLFERSRPRPEALRVIYGFPNTYSVGITSLGYQLVWAQLASRADVAVSRLFTDVQEPLPRDPELVGFSFSWELDYGNLLVLLEQLGIPIWQRDRHDCHPLVFGGGPVLTANPEPFADFFDVILLGDAEPLLDPFLTTMAQVRTAARSQRLEALAHVPGIYVPSLYHVSYSHPTGPIQRIEPIKASVPPTVTKQVHRGHTLAASTVVTPLAAWENIYMVEVVRSCPELCRFCLASYLTLPFRTPSLETLIPAIERGLAVTDRLGLLGASITQHPEFPALIEHLGQPQFDHVRVSLASVRTNTVTESLAQLLSQRGSQSLTIAIETGSERLRQVINKKLETEEILAAASHAQAGGLKGLKFYGMVGLPTETDADVAATVDLFCQLKKTAPRLRLTLGCSTFVPKAHTPFQWWGVQPVAEKRLKFLKKELAKLGIEFRPESYNDSLIQALISRGDRRLAPLLEQVRHYGTSLGSYRRAFKERQGQLPDFEAYVNANWPEETVLPWQHLQSGLPTKTLENHLKRAIALEHHHHHH
- protein production: failed

Sequence: SKIIDIKTSIIKIPLKRTFITAVRSTNHIDSLAVELTLDNGVKGYGVAPATTAITGDTLQGMQYIIREIFAPVILGSDLSDYKQTLELAFKKVMFNSAAKMAIDLAYHDLLAKEQDISVAKLLGAKANSIVTDVSISCGNVAETIQNIQNGVEANFTAIKVKTGADFNRDIQLLKALDNEFSKNIKFRFDANQGWNLAQTKQFIEEINKYSLNVEIIEQPVKYYDIKAMAEITKFSNIPVVADESVFDAKDAERVIDEQACNMINIKLAKTGGILEAQKIKKLADSAGISCMVGCMMESPAGILATASFALAEDITVADLDPLDWVAKDLYSDYITFNEPNIILKDNLKGFGFNL
- protein production: not failed

Sequence: VSGFQRLQKPVVSQPDFRRQPVSETMQVYLKQAADPGRDVGLYWMATDFENRRFPGKVSPSGFQKLYRQWRNQTGWDAYVQSCRAIWNDVKYFPIPQSLDDTEDKISYVDSWMFERNYGGKRGHEGTDIMAEKNTPGYYPVVSMTDGVVTEKGWLEKGGWRIGITAPTGAYFYYAHLDSYAELEKGDPVKAGDLLGYMGDSGYGEEGTTGEFPVHLHLGIYLKEGTEEISVNPYPVLRYAENARIKCVYSR
- protein production: not failed

Sequence: MAVTLQQTLIDIDEEQLVFHLHNDQISYILGVETGNVLAHLYFGPRVRGYHGERQYPRIDRGFSGNLPNTTDRSYSKDDLPQEYGGNNTGDYRQPAAIIRAANGARTVDFRYQDCRMEAGKPELKGLPQTYVEDEDEAQTLIVTLRDATLGVTLELAYTIYRDRPVITRSARLINHSEQAVDLEKVASMQMDLPTQPLDAISLPGSYARERQLSRERLHRGVTQFESRRGASSHHMNPFVALADPNTNEFQGNVLGALLIYSGNHQISLERDPIGQTRLTMGINEYNFDWRLAAGDSFQTPEVAMVYSTTGLNGMSQTYHDLLRDRVARSRYKHDLRPILINNWEATYFDFDADKIQSILDAAAPLGIEMFVLDDGWFGHRNDDNSSLGDWFVNRNKLPGGLADISKRTHDKGMRFGLWFEPENISADSDLYRAHPDWVLGVPDRGRTLSRNEYVLDFSQPDVVDNIFEQMTAVLDKVPIDYIKWDMNRNLTEVYSPHSDSTHEGETSHRFILGVYDLMERLTKRYPQILFEGCSGGGGRFDAGLMYYMPQSWPSDNNDPIERLKIQYGTSLVYPISAITAHVGTSPDELLGRSTSMKMRGAVAMSGTLGYELDAAQLSDADKQAVKRQVAFYKQHRELVQYGTFYRLESPFESNTVAWMFVSPDQKEALLFTFVILGAVQPEPHITKLAGLDPQQTYVETDTNKMYGGDELMQLGLYTTPVQTSDFTAQVHYFKAKDLEHHHHHH
- protein production: failed

Sequence: RNTNPGIKCFAVRSLGWVEMTEEELAPGRSSVAVNNCIRQLSYHKNNLHDPMSGGWGEG
- protein production: failed

Sequence: MLTQANIPSWYEGLNKSGLTPPGPVFSIVWSILYALLAIVGWVLWCSRNESEMRSVFYLYSVQMLMNWAWTPLFFVLHWTGLSFLWILVMAGLTGLLMFSQTNKKKSLAILLLPYLIWLLFAAYLNGVIWLLN
- protein production: failed

From a protein production outcome set (Wang et al. 2014)
